Experimental data taken from patent publication US20210355220A1 (TIKCRO TECHNOLOGIES, published 2021).

B1: Ab55h-PM1 (antibody, V domains shown)
VH: QVQLQESGPGLVKPSETLSLTCAVSGYSISGDYYWNWIRQPPGKGLEWIGSIYHSGYTYYNPSLKSRVTISVDTSKNQFSLKLSSVTAADTAVYYCARDSGWYVIAFDYWGQGTLVTVSS
VL: EIVMTQSPATLSVSPGERATLSCRASQSVSSNLAWYQEKPGQAPRLLIYGASTRATGIPARFSGSGSGTEFTLTISSLQSEDFAVYYCQQYNNWPPLTFGGGTKVEIK
B2: Ab55h-PM8 (antibody, V domains shown)
VH: QVQLQESGPGLVKPSETLSLTCAVSGYSISGDYYWGWIRQPPGKGLEWIGSIYHSGYTYYNPSLKSRVTISVDTSKNQFSLKLSSVTAADTAVYYCARDSGWYVIAFDYWGQGTLVTVSS
VL: EIVMTQSPATLSVSPGERATLSCRASQSVSSNLAWYQEKPGQAPRLLIYAASTRATGIPARFSGSGSGTEFTLTISSLQSEDFAVYYCQQYNNWPPLTFGGGTKVEIK
B3: Ab55h-PM15 (antibody, V domains shown)
VH: QVQLQESGPGLVKPSETLSLTCAVSGYSISGDYYWGWIRQPPGKGLEWIGSIYHSGYTYYNPSLKSRVTISVDTSKNQFSLKLSSVTAADTAVYYCARDSGAYVIAFDYWGQGTLVTVSS
VL: EIVMTQSPATLSVSPGERATLSCRASQSVSSNLAWYQEKPGQAPRLLIYGASTRATGIPARFSGSGSGTEFTLTISSLQSEDFAVYYCQQYNNWPPLTFGGGTKVEIK
B4: Ab55h-PM3 (antibody, V domains shown)
VH: QVQLQESGPGLVKPSETLSLTCAVSGYSISGDYYWGWIRQPPGKGLEWIGSIYHSAYTYYNPSLKSRVTISVDTSKNQFSLKLSSVTAADTAVYYCARDSGWYVIAFDYWGQGTLVTVSS
VL: EIVMTQSPATLSVSPGERATLSCRASQSVSSNLAWYQEKPGQAPRLLIYGASTRATGIPARFSGSGSGTEFTLTISSLQSEDFAVYYCQQYNNWPPLTFGGGTKVEIK
B5: Ab55h-PM19 (antibody, V domains shown)
VH: QVQLQESGPGLVKPSETLSLTCAVSGYSISGDYYWGWIRQPPGKGLEWIGSIYHSGYTYYNPSLKSRVTISVDTSKNQFSLKLSSVTAADTAVYYCARDSGWYVIAFDYWGQGTLVTVSS
VL: EIVMTQSPATLSVSPGERATLSCRASQSVGSNLAWYQEKPGQAPRLLIYGASTRATGIPARFSGSGSGTEFTLTISSLQSEDFAVYYCQQYNNWPPLTFGGGTKVEIK
B6: Ab55h-PM7 (antibody, V domains shown)
VH: QVQLQESGPGLVKPSETLSLTCAVSGYSISGDYYWGWIRQPPGKGLEWIGSIYHSGYTYYNPSLKSRVTISVDTSKNQFSLKLSSVTAADTAVYYCARDSGWYVIAFDYWGQGTLVTVSS
VL: EIVMTQSPATLSVSPGERATLSCRASQSISSNLAWYQEKPGQAPRLLIYGASTRATGIPARFSGSGSGTEFTLTISSLQSEDFAVYYCQQYNNWPPLTFGGGTKVEIK
B7: Ab55h-PM6 (antibody, V domains shown)
VH: QVQLQESGPGLVKPSETLSLTCAVSGYSISGDYYWGWIRQPPGKGLEWIGSIYHSGYTYYNPSLKSRVTISVDTSKNQFSLKLSSVTAADTAVYYCARDSGWYVIAFDIWGQGTLVTVSS
VL: EIVMTQSPATLSVSPGERATLSCRASQSVSSNLAWYQEKPGQAPRLLIYGASTRATGIPARFSGSGSGTEFTLTISSLQSEDFAVYYCQQYNNWPPLTFGGGTKVEIK
B8: Ab55h-PM18 (antibody, V domains shown)
VH: QVQLQESGPGLVKPSETLSLTCAVSGYSISSDYYWGWIRQPPGKGLEWIGSIYHSGYTYYNPSLKSRVTISVDTSKNQFSLKLSSVTAADTAVYYCARDSGWYVIAFDYWGQGTLVTVSS
VL: EIVMTQSPATLSVSPGERATLSCRASQSVSSNLAWYQEKPGQAPRLLIYGASTRATGIPARFSGSGSGTEFTLTISSLQSEDFAVYYCQQYNNWPPLTFGGGTKVEIK
B9: Ab55h-PM12 (antibody, V domains shown)
VH: QVQLQESGPGLVKPSETLSLTCAVSGYSISGDYYWGWIRQPPGKGLEWIGSIYHSGYTYYNPSLKSRVTISVDTSKNQFSLKLSSVTAADTAVYYCARDSGWYVIAYDYWGQGTLVTVSS
VL: EIVMTQSPATLSVSPGERATLSCRASQSVSSNLAWYQEKPGQAPRLLIYGASTRATGIPARFSGSGSGTEFTLTISSLQSEDFAVYYCQQYNNWPPLTFGGGTKVEIK
B10: Ab55h-PM4 (antibody, V domains shown)
VH: QVQLQESGPGLVKPSETLSLTCAVSGYSISGDYYWGWIRQPPGKGLEWIGSIYHSGYTYYNPSVKSRVTISVDTSKNQFSLKLSSVTAADTAVYYCARDSGWYVIAFDYWGQGTLVTVSS
VL: EIVMTQSPATLSVSPGERATLSCRASQSVSSNLAWYQEKPGQAPRLLIYGASTRATGIPARFSGSGSGTEFTLTISSLQSEDFAVYYCQQYNNWPPLTFGGGTKVEIK
B11: Ab55h-PM20 (antibody, V domains shown)
VH: QVQLQESGPGLVKPSETLSLTCAVSGYSISGDYYWGWIRQPPGKGLEWIGSIYHSGYTYYNPSLKSRVTISVDTSKNQFSLKLSSVTAADTAVYYCARDSGWYVIAFDYWGQGTLVTVSS
VL: EIVMTQSPATLSVSPGERATLSCRASQSVYSNLAWYQEKPGQAPRLLIYGASTRATGIPARFSGSGSGTEFTLTISSLQSEDFAVYYCQQYNNWPPLTFGGGTKVEIK
B12: Ab55h-PM13 (antibody, V domains shown)
VH: QVQLQESGPGLVKPSETLSLTCAVSGYSISGDYYWGWIRQPPGKGLEWIGSIYHSGYTYYNPSLKSRVTISVDTSKNQFSLKLSSVTAADTAVYYCARDVGWYVIAFDYWGQGTLVTVSS
VL: EIVMTQSPATLSVSPGERATLSCRASQSVSSNLAWYQEKPGQAPRLLIYGASTRATGIPARFSGSGSGTEFTLTISSLQSEDFAVYYCQQYNNWPPLTFGGGTKVEIK
B13: Ab55h-PM2 (antibody, V domains shown)
VH: QVQLQESGPGLVKPSETLSLTCAVSGYSISGDYYWGWIRQPPGKGLEWIGSIYHDGYTYYNPSLKSRVTISVDTSKNQFSLKLSSVTAADTAVYYCARDSGWYVIAFDYWGQGTLVTVSS
VL: EIVMTQSPATLSVSPGERATLSCRASQSVSSNLAWYQEKPGQAPRLLIYGASTRATGIPARFSGSGSGTEFTLTISSLQSEDFAVYYCQQYNNWPPLTFGGGTKVEIK
B14: Ab55h-PM9 (antibody, V domains shown)
VH: QVQLQESGPGLVKPSETLSLTCAVSGYSISGDYYWGWIRQPPGKGLEWIGSIYHSGYTYYNPSLKSRVTISVDTSKNQFSLKLSSVTAADTAVYYCARDSGWYVIAFDYWGQGTLVTVSS
VL: EIVMTQSPATLSVSPGERATLSCRASQSVSSNLAWYQEKPGQAPRLLIYGATTRATGIPARFSGSGSGTEFTLTISSLQSEDFAVYYCQQYNNWPPLTFGGGTKVEIK
B15: Ab55h-PM10 (antibody, V domains shown)
VH: QVQLQESGPGLVKPSETLSLTCAVSGYSISGDYYWGWIRQPPGKGLEWIGSIYHSGYTYYNPSLKSRVTISVDTSKNQFSLKLSSVTAADTAVYYCARDSGWYVIAFDYWGQGTLVTVSS
VL: EIVMTQSPATLSVSPGERATLSCRASQSVSSNLAWYQEKPGQAPRLLIYGASSRATGIPARFSGSGSGTEFTLTISSLQSEDFAVYYCQQYNNWPPLTFGGGTKVEIK
B16: Ab55h-PM17 (antibody, V domains shown)
VH: QVQLQESGPGLVKPSETLSLTCAVSGYSISGDYYWGWIRQPPGKGLEWIGSIYHSGYTYYNPSLKSRVTISVDTSKNQFSLKLSSVTAADTAVYYCARDSGWYVIAFDYWGQGTLVTVSS
VL: EIVMTQSPATLSVSPGERATLSCRASQSVSSNLAWYQEKPGQAPRLLIYGASTRATGIPARFSGSGSGTEFTLTISSLQSEDFAVYYCQQYNVWPPLTFGGGTKVEIK
B17: Ab55h-PM11 (antibody, V domains shown)
VH: QVQLQESGPGLVKPSETLSLTCAVSGYSISGDYYWGWIRQPPGKGLEWIGSIYHSGYTYYNPSLKSRVTISVDTSKNQFSLKLSSVTAADTAVYYCARDSGWYVIGFDYWGQGTLVTVSS
VL: EIVMTQSPATLSVSPGERATLSCRASQSVSSNLAWYQEKPGQAPRLLIYGASTRATGIPARFSGSGSGTEFTLTISSLQSEDFAVYYCQQYNNWPPLTFGGGTKVEIK
B18: Ab55h-PM14 (antibody, V domains shown)
VH: QVQLQESGPGLVKPSETLSLTCAVSGYSISGDYYWGWIRQPPGKGLEWIGSIYHSGYTYYNPSLKSRVTISVDTSKNQFSLKLSSVTAADTAVYYCARDSGFYVIAFDYWGQGTLVTVSS
VL: EIVMTQSPATLSVSPGERATLSCRASQSVSSNLAWYQEKPGQAPRLLIYGASTRATGIPARFSGSGSGTEFTLTISSLQSEDFAVYYCQQYNNWPPLTFGGGTKVEIK
B19: Ab55h-PM16 (antibody, V domains shown)
VH: QVQLQESGPGLVKPSETLSLTCAVSGYSISGDYYWGWIRQPPGKGLEWIGSIYHSGYTYYNPSLKSRVTISVDTSKNQFSLKLSSVTAADTAVYYCARDSGWYVIAFDYWGQGTLVTVSS
VL: EIVMTQSPATLSVSPGERATLSCRASQSVSSNLAWYQEKPGQAPRLLIYGASTRATGIPARFSGSGSGTEFTLTISSLQSEDFAVYYCQQYANWPPLTFGGGTKVEIK
B20: Ab55h-PM5 (antibody, V domains shown)
VH: QVQLQESGPGLVKPSETLSLTCAVSGYSISGDYYWGWIRQPPGKGLEWIGSIYHSGYTYYNPSLKSRVTISVDTSKNQFSLKLSSVTAADTAVYYCARDSGWYVIAFAYWGQGTLVTVSS
VL: EIVMTQSPATLSVSPGERATLSCRASQSVSSNLAWYQEKPGQAPRLLIYGASTRATGIPARFSGSGSGTEFTLTISSLQSEDFAVYYCQQYNNWPPLTFGGGTKVEIK

target: T1, human CTLA-4 expressed on cells (human, UniProt P16410 36-223); experiment: flow cytometry on HEK293-hCTLA-4 cells
T1 construct: whole, on cells; On stably or transiently transfected HEK293 cells; also called hCTLA-4; HEK293-hCTLA-4 cells
T1 sequence (P16410 36-223): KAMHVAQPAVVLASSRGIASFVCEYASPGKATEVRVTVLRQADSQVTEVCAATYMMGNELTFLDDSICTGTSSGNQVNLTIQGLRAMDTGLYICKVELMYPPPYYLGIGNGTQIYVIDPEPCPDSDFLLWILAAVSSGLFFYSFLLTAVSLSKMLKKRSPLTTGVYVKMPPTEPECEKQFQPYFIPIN
Protocol: To test the binding of antibodies to CTLA-4 under more physiological conditions, the binding of CTLA-4 antibodies to cell-surface CTLA-4 was tested. […] The surface expression of hCTLA-4 in the obtained cell line was tested using a commercial anti-CTLA-4 antibody and compared to the parent cell line (HEK293 without transfection). […] The anti-CTLA-4 antibodies were incubated in serial dilution concentrations with the HEK293-hCTLA-4 cells for 1 hour on ice. Following a wash step, an anti-human antibody conjugated to ALEXA FLUOR® 647® was added for an additional hour. The cells were washed, and propidium iodide (PI) was added to exclude dead cells. The fluorescent signal was measured using FACS and analyzed. Dead cells were removed based on the PI signal. The population was gated based on forward and side scatter (FSC and SSC) parameters, and doublets were removed. The Median Fluorescent Intensity (MFI) of the appropriate channel was calculated for the live single cells from each group. The MFI was plotted versus antibody concentration in Prism software (V6.01) and kinetic parameters were obtained using a curve fit dose response function with four parameters. […] The lower EC₅₀ values indicate increased binding affinity to cell surface hCTLA-4.

Q: How did the EC50 turn out when B1 was run?
A: 0.27 nM

Q: With B2 as the binder, how does the EC50 read?
A: 0.16 nM

Q: For B3, which EC50 is on record?
A: 0.32 nM

Q: How did the EC50 turn out when B4 was run?
A: 0.42 nM

Q: B5 was tested. Which EC50 did it give?
A: 0.12 nM

Q: Which EC50 does the source give for B6 here?
A: 0.18 nM

Q: With B7 as the binder, how does the EC50 read?
A: 0.15 nM

Q: For B8, which EC50 is on record?
A: 0.21 nM

Q: How did the EC50 turn out when B9 was run?
A: 0.24 nM

Q: How did the EC50 turn out when B10 was run?
A: 0.39 nM

Q: For B11, which EC50 is on record?
A: 0.19 nM

Q: How did the EC50 turn out when B12 was run?
A: 0.22 nM

Q: Which EC50 does the source give for B13 here?
A: 0.52 nM

Q: For B14, which EC50 is on record?
A: 0.26 nM

Q: For B15, which EC50 is on record?
A: 0.24 nM

Q: With B16 as the binder, how does the EC50 read?
A: 0.31 nM

Q: How did the EC50 turn out when B17 was run?
A: 0.21 nM

Q: Which EC50 does the source give for B18 here?
A: 0.32 nM

Q: B19 was tested. Which EC50 did it give?
A: 0.27 nM

Q: With B20 as the binder, how does the EC50 read?
A: 0.24 nM
